T1: sN-TALER IIa-1 (synthetic)
T1 chain: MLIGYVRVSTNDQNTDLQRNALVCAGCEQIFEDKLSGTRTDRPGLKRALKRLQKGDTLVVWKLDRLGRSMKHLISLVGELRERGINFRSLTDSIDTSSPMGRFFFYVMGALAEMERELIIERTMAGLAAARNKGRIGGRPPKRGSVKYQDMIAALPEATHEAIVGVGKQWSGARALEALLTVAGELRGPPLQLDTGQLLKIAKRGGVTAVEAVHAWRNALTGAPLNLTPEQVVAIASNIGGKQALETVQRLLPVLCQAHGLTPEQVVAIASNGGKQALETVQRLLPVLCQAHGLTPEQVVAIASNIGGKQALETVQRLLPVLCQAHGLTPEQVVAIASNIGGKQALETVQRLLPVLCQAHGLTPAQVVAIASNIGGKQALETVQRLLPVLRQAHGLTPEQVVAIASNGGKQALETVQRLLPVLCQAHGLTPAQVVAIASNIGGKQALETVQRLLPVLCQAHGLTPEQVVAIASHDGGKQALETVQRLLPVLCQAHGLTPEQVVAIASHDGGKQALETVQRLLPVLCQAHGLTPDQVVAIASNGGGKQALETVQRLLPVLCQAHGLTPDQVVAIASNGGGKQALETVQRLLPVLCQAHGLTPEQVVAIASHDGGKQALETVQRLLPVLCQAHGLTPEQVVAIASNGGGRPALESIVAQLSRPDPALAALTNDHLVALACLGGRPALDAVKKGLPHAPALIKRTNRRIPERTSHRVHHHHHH

T2: sN-TALER III-1 (synthetic)
T2 chain: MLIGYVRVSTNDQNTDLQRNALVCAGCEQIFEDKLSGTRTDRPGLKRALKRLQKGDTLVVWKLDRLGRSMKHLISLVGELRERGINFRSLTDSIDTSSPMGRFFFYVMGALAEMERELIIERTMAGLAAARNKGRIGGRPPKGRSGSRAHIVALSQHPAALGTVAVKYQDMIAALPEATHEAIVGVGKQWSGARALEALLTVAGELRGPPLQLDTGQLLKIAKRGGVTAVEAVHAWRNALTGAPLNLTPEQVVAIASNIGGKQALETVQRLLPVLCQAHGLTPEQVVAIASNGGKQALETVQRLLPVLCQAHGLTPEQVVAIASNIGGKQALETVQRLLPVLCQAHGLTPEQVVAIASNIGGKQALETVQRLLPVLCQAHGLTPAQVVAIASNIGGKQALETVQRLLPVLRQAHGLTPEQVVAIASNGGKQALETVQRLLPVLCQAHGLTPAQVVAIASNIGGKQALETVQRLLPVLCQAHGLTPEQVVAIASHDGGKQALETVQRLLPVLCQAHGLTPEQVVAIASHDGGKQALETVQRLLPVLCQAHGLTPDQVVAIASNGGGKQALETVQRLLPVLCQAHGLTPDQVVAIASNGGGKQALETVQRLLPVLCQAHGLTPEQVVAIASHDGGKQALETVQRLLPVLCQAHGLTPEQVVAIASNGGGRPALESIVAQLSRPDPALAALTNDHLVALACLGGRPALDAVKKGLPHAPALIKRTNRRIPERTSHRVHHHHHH

T3: sN-TALER IV-5 (synthetic)
T3 chain: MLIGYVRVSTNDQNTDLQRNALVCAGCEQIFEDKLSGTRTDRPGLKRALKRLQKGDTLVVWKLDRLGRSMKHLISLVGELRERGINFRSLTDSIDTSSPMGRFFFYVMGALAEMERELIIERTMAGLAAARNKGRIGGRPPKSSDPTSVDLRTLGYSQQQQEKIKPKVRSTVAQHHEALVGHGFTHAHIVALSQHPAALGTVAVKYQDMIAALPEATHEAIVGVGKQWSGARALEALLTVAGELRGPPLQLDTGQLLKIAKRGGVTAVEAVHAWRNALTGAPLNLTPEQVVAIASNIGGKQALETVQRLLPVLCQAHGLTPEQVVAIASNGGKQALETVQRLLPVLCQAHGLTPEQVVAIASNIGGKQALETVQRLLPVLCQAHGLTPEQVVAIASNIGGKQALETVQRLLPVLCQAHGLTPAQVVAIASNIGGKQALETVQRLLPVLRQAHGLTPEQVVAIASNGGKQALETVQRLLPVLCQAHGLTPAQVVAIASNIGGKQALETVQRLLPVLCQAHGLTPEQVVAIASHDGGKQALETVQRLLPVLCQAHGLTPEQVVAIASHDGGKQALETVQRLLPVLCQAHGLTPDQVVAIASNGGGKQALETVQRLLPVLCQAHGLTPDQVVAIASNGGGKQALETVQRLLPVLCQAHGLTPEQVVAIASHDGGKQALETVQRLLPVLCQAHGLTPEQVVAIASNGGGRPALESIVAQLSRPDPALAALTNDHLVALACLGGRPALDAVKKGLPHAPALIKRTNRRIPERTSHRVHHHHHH

B1: Gin18TALE+0 (dsDNA)
DNA 1: AGAAGGTATTTATACCAAAACCATGGTTTACATATAAATACCTTCT
DNA 2: AGAAGGTATTTATATGTAAACCATGGTTTTGGTATAAATACCTTCT
B2: Gin20TALE+0 (dsDNA)
DNA 1: AGAAGGTATTTATATCCAAAACCATGGTTTACAGTATAAATACCTTCT
DNA 2: AGAAGGTATTTATACTGTAAACCATGGTTTTGGATATAAATACCTTCT

Legend:
Experiment in all cases: cell_activity; E. coli
Conditions in all cases: tags: 6-His
sN-TALER IIa-1 = target: T1, sN-TALER IIa-1
How it was run: (§1)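 DH5alpha cells co-transformed (heat shock or electroporation) with N-TALER expression and reporter plasmids at ~1:1 mass ratio; reporter alone as control. Plated on chloramphenicol/kanamycin/X-gal, grown 37° C. for 18 to 36 hours; recombination scored by colony colour.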

sN-TALER III-1 = target: T2, sN-TALER III-1
How it was run: as §1

sN-TALER IV-5 = target: T3, sN-TALER IV-5
How it was run: as §1

| Binder | activity (sN-TALER IIa-1) [score] | activity (sN-TALER III-1) [score] | activity (sN-TALER IV-5) [score] |
| --- | --- | --- | --- |
| B1 | 4 | 4.5 | – |
| B2 | – | – | 4.5 |
